Test results: patent publication US5817785, “Methods of producing nucleic acid ligands” (NeXstar Pharmaceuticals, Inc.)

Key:
[1] = molecular target: T1, HIV-1 reverse transcriptase (HIV-RT) (HIV-1, UniProt P04585;P04585 P04585:588-1147,P04585:588-1027); assay: filter
Experimental: (§1) Affinity assays with labeled RNA and HIV-RT. Model RNAs for refinement of the 5' and 3' boundaries and for determination of the effect of substitutions were labeled during transcription with T7 RNA polymerase as described in Tuerk et al. (1990) except that a-^32P-ATP was used, in reactions of 0.5 mM C,G, and UTP with 0.05 mM ATP. Synthetic oligonucleotides and phosphatased transcripts (as in Tuerk et al., 1990) were kinased as described in Gauss et al. (1987). All RNA-protein binding reactions were done in a "binding buffer" of 200 mM KOAc, 50 mM Tris-HCl pH 7.7, 10 mM dithiothreitol with exceptions noted for chemical protection experiments below. RNA and protein dilutions were mixed and stored on ice for 30 minutes then transferred to 37° C. for 5 minutes. In binding assays the reaction volume was 60 μl of which 50 μl was assayed. Each reaction was suctioned through a pre-wet (with binding buffer) nitrocellulose filter and rinsed with 3 mls of binding buffer after which it was dried and counted for assays or subjected to elution and assayed for chemical modification. In comparisons of binding affinity, results were plotted and the protein concentration at which half-maximal binding occurred (the approximate Kd in conditions of protein excess) was determined graphically.

[2] = molecular target: T1, HIV-1 reverse transcriptase (HIV-RT); assay: filter; specific binding abolished
Experimental: as §1

[3] = molecular target: T1, HIV-1 reverse transcriptase (HIV-RT); assay: filter; no difference in affinity
Experimental: as §1

[4] = molecular target: T1, HIV-1 reverse transcriptase (HIV-RT); assay: filter; binding reduced to that of non-specific sequences
Experimental: as §1

[5] = molecular target: T1, HIV-1 reverse transcriptase (HIV-RT); assay: filter; section II states 5-fold decrease on removal of both Us
Experimental: as §1

[6] = molecular target: T1, HIV-1 reverse transcriptase (HIV-RT); assay: filter; binds with high affinity
Experimental: as §1

[7] = molecular target: T1, HIV-1 reverse transcriptase (HIV-RT); assay: filter; affinity unchanged versus transcripts with two extra 5' Gs
Experimental: as §1

[8] = molecular target: T1, HIV-1 reverse transcriptase (HIV-RT); assay: filter; no 3' helix
Experimental: as §1

[9] = molecular target: T1, HIV-1 reverse transcriptase (HIV-RT); assay: filter; little difference in affinity
Experimental: as §1

[10] = molecular target: T1, HIV-1 reverse transcriptase (HIV-RT); assay: filter; no effect on binding
Experimental: as §1

B1: ligand B C3-G14 to G-C (ssRNA)
RNA: GGUCGGAAGUGCAACCGGAAAAUGCACU
Work on B1 yielded a binding signal [1] of about 10 fold lower affinity.

B2: ligand B G16A (ssRNA)
RNA: GGUCCGAAGUGCAACGGAAAAAUGCACU
B2: no binding [2].

B3: ligand B U1C (ssRNA)
RNA: GGCCCGAAGUGCAACGGGAAAAUGCACU
In the case of B3, the binding signal [1] is reported as about 20 fold lower affinity.

B4: ligand B 3' truncation A24-U26 (ssRNA)
RNA: GGUCCGAAGUGCAACGGGAAAAUGC
In the case of B4, the binding signal [3] is reported as 1 fold vs ligand B.

B5: ligand B 3' truncation G22-U26 (ssRNA)
RNA: GGUCCGAAGUGCAACGGGAAAAU
For B5, the binding signal [1] was about 12 fold lower affinity.

B6: HIV-RT ligand D of FIG. 2 (5' U and next C removed) (ssRNA)
RNA: GGCGAAGUGCAACGGGAAAAUGCACU
B6: no binding [4].

B7: ligand B C2-G15 to G-C (ssRNA)
RNA: GGUGCGAAGUGCAACGCGAAAAUGCACU
B7: no binding [1].

B8: HIV-RT ligand C of FIG. 2 (no 5' U) (ssRNA)
RNA: GGCCGAAGUGCAACGGGAAAAUGCACU
modifications: [none]
Binder B8 has a binding signal [5] of about 20 fold lower affinity.

B9: ligand B with 2'-methoxy Stem 2 (FIG. 7 C) (ssRNA)
RNA: UCCGAAGUGCAACGGGAAAAUGCACU
modifications: 2'-OMe at the 12 riboses of Stem 2 (A6-A11, U21-U26)
B9: binds [6].

B10: ligand B 3' truncation C23-U26 (ssRNA)
RNA: GGUCCGAAGUGCAACGGGAAAAUG
B10 showed a binding signal [1] of 7 fold lower affinity.

B11: synthetic ligand B with 5'-terminal U1 (ssRNA)
RNA: UCCGAAGUGCAACGGGAAAAUGCACU
B11: binds [7].

B12: ligand B 3' truncation U21-U26 (no Stem 2) (ssRNA)
RNA: GGUCCGAAGUGCAACGGGAAAA
B12 showed a binding signal [8] of about 70 fold lower affinity.

B13: ligand B G4-C13 to A-U (ssRNA)
RNA: GGUCCAAAGUGCAAUGGGAAAAUGCACU
Binder B13 has a binding signal [1] of about 20 fold lower affinity.

B14: ligand B G4-C13 to A-C (ssRNA)
RNA: GGUCCAAAGUGCAACGGGAAAAUGCACU
In the case of B14, the binding signal [2] is reported as at least 100 fold lower affinity.

B15: ligand B U1A (ssRNA)
RNA: GGACCGAAGUGCAACGGGAAAAUGCACU
B15: binds [9].

B16: ligand B G4-C13 to C-G (ssRNA)
RNA: GGUCCCAAGUGCAAGGGGAAAAUGCACU
B16 was tested, and the binding signal [10] was 1 fold vs ligand B.
